Source: patent US8840892B2, “Method of administering antibiotic therapy for treating intracellular infectious diseases” (Universidad Nacional Autónoma de México, priority 2003, dated 2014)

Key:
[1] = mouse, in vivo
PGE formation (COX-2) = assay: inhibition of PGE formation by selective COX-2 inhibitors
[2] = system: Mycobacterium tuberculosis; assay: experimental model of pulmonary tuberculosis in BALB/c mice; type: in vivo
TGF-β = details: recombinant soluble form, in vitro; cited from earlier work

## COc1ccc2c(c1)c(CC(=O)O)c(C)n2C(=O)c1ccc(Cl)cc1 [indometacine]
[1]
  gastric side effect: extensive erosive gastritis

## O=C(O)c1cccnc1Nc1cccc(C(F)(F)F)c1 [niflumic acid, reference compound]
PGE formation (COX-2)
  inhibition of the formation of PGE: 98%
[2]; mouse, in vivo
  bacteria colony forming units (CFU) in lung: decreased significantly
  decrease of the area affected by pneumonia in relation to the control group: 25%
  expression of IL-2, TNF-α, IFN-γ and nitric acid synthetase (increase) and interleukin 10 (decrease): same pattern

B1: soluble betaglycan: soluble (recombinant) ectodomain of betaglycan, TGF-β type III receptor; natural antagonist of TGF-β (protein, UniProt Q03167 21-787, looked up)
extracellular domain: GPEPGALCELSPVSASHPVQALMESFTVLSGCASRGTTGLPQEVHVLNLRTAGQGPGQLQREVTLHLNPISSVHIHHKSVVFLLNSPHPLVWHLKTERLATGVSRLFLVSEGSVVQFSSANFSLTAETEERNFPHGNEHLLNWARKEYGAVTSFTELKIARNIYIKVGEDQVFPPKCNIGKNFLSLNYLAEYLQPKAAEGCVMSSQPQNEEVHIIELITPNSNPYSAFQVDITIDIRPSQEDLEVVKNLILILKCKKSVNWVIKSFDVKGSLKIIAPNSIGFGKESERSMTMTKSIRDDIPSTQGNLVKWALDNGYSPITSYTMAPVANRFHLRLENNAEEMGDEEVHTIPPELRILLDPGALPALQNPPIRGGEGQNGGLPFPFPDISRRVWNEEGEDGLPRPKDPVIPSIQLFPGLREPEEVQGSVDIALSVKCDNEKMIVAVEKDSFQASGYSGMDVTLLDPTCKAKMNGTHFVLESPLNGCGTRPRWSALDGVVYYNSIVIQVPALGDSSGWPDGYEDLESGDNGFPGDMDEGDASLFTRPEIVVFNCSLQQVRNPSSFQEQPHGNITFNMELYNTDLFLVPSQGVFSVPENGHVYVEVSVTKAEQELGFAIQTCFISPYSNPDRMSHYTIIENICPKDESVKFYSPKRVHFPIPQADMDKKRFSFVFKPVFNTSLLFLQCELTLCTKMEKHPQKLPKCVPPDEACTSLDASIIWAMMQNKKTFTKPLAVIHHEAESKEKGPSMKEPNPISPPIFHGLDTLTV
modifications: extracellular domain
[2]; advanced phase of infection
  extent of pneumonia (in words): increased
[2]; after 30 days of treatment, vs untreated control
  bacteria colony forming units (CFU) in lung: decreased significantly
[2]; after 60 days of treatment
  CFU less than control group: 50%
[2]; after two months of treatment, increase vs untreated control
  more pneumonia than the control group: 30%
[2]; intraperitoneal, advanced phase of the disease
  bacillary load / amount of tuberculosis bacilli in the lung (in words): significant decrease
TGF-β
  neutralization of the effects of TGF-β: potent neutralizing agent
